{"source": "paper PMC9929602", "biological_target": "tetraspanin CD81 (human (endogenous in THP-1)) (UniProt P60033)", "sequence (P60033 whole entry)": "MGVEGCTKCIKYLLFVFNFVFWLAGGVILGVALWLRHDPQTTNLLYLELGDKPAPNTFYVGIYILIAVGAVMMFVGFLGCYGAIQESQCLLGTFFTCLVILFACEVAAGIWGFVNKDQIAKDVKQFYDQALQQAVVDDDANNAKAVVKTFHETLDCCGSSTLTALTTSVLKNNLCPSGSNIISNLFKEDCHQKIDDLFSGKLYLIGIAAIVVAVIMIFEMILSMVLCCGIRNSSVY", "data": [{"substance": "AhpC-6×His (recombinant M. abscessus AhpC) (enzyme)", "values": [{"measurement": "reduction of infectivity of Mab WT (CFU) in THP-1 cells pre-incubated with 2 μg soluble AhpC-His, against untreated cells or cells pre-incubated with Hsp16.7-His", "result": 30, "unit": "%"}]}]}
